Results taken from patent US20240084039A1.

molecular target: pre-existing anti-drug antibodies (ADA) present in human sera; experiment: ELISA pre-existing ADA binding assay, confirmatory setup, test molecule coated, 20 human sera

| Binder | % positives of total tested serum samples | No of positive serum samples above 30% CCP (serum samples) |
| --- | --- | --- |
| PRO2922 (scFv) scFv: DIQMTQSPSSLSASVGDRVTITCQASESIYSSLAWYQQKPGKAPKLLIYLASTLASGVPSRFSGSGSGTDFTLTISSLQPEDFATYYCQSTDYTTSTHRNSFGTGTKVTVLGGGGGSGGGGSGGGGSGGGGSEVQLVESGGGRVQPGGSLRLSCAASGFSFSTTYYMCWVRQAPGKGLEWIGCTNTASSVRTYYATWAKGRFTISRDNSKNTVYLQMNSLRAEDTAVYYCARDMGFADYALNLWGQGTLVTVSS | 10% | 2 |
| PRO2920 (scFv) scFv: DIQMTQSPSSLSASVGDRVTITCQASESIYSSLAWYQQKPGKAPKLLIYLASTLASGVPSRFSGSGSGTDFTLTISSLQPEDFATYYCQSTDYTTSTHRNSFGTGTKVTVLGGGGGSGGGGSGGGGSGGGGSEVQLVESGGGRVQPGGSLRLSCAASGFSFSTTYYMCWVRQAPGKGLEWIGCTNTASSVRTYYATWAKGRFTISRDNSKNTVYLQMNSLRAEDTAVYYCARDMGFADYALNLWGQGTQVTVSS | 10% | 2 |
| PRO2919 (scFv) scFv: DIQMTQSPSSLSASVGDRVTITCQASESIYSSLAWYQQKPGKAPKLLIYLASTLASGVPSRFSGSGSGTDFTLTISSLQPEDFATYYCQSTDYTTSTHRNSFGTGTKVTVLGGGGGSGGGGSGGGGSGGGGSEVQLVESGGGRVQPGGSLRLSCAASGFSFSTTYYMCWVRQAPGKGLEWIGCTNTASSVRTYYATWAKGRFTISRDNSKNTVYLQMNSLRAEDTATYYCARDMGFADYALNLWGQGTLVTVSS | 5% | 1 |
| PRO2918 (scFv) scFv: DIQMTQSPSSLSASVGDRVTITCQASESIYSSLAWYQQKPGKAPKLLIYLASTLASGVPSRFSGSGSGTDFTLTISSLQPEDFATYYCQSTDYTTSTHRNSFGTGTKVTVLGGGGGSGGGGSGGGGSGGGGSEVQLVESGGGRVQPGGSLRLSCAASGFSFSTTYYMCWVRQAPGKGLEWIGCTNTASSVRTYYATWAKGRFTISRDNSKNTVYLQMNSLRAEDTATYYCARDMGFADYALNLWGQGTQVTVSS | 25% | 5 |
| PRO2907 (scFv) scFv: DIQMTQSPASLSASVGDRVTITCQASQSIGTYLAWYQQKPGKPPKLLIYRAFILASGVPSRFSGSGSGTDFTLTISSLQPEDFATYYCQSNFYSDSTTIGPNAFGTGTKVTVLGGGGGSGGGGSGGGGSGGGGSEVQLVESGGGRVQPGGSLRLSCAASGFSFNSDYWIYWVRQAPGKGLEWIASIYGGSSGNTQYASWAQGRFTISRDNSKNTVYLQMNSLRAEDTAVYFCARGYVDYGGATDLWGQGTLVTVSS | 15% | 3 |
| PRO2903 (scFv) scFv: DIQMTQSPASLSASVGDRVTITCQASQSIGTYLAWYQQKPGKPPKLLIYRAFILASGVPSRFSGSGSGTDFTLTISSLQPEDFATYYCQSNFYSDSTTIGPNAFGTGTKVTVLGGGGGSGGGGSGGGGSGGGGSEVQLVESGGGRVQPGGSLRLSCAASGFSFNSDYWIYWVRQAPGKGLEWIASIYGGSSGNTQYASWAQGRFTISRDNSKNTVYLQMNSLRAEDTATYFCARGYVDYGGATDLWGQGTQVTVSS | 30% | 6 |
| PRO2905 (scFv) scFv: DIQMTQSPASLSASVGDRVTITCQASQSIGTYLAWYQQKPGKPPKLLIYRAFILASGVPSRFSGSGSGTDFTLTISSLQPEDFATYYCQSNFYSDSTTIGPNAFGTGTKVTVLGGGGGSGGGGSGGGGSGGGGSEVQLVESGGGRVQPGGSLRLSCAASGFSFNSDYWIYWVRQAPGKGLEWIASIYGGSSGNTQYASWAQGRFTISRDNSKNTVYLQMNSLRAEDTAVYFCARGYVDYGGATDLWGQGTQVTVSS | 20% | 7 |
